The target of the assay is MtMscL CΔ48 C-GFP (pet15b-MtMscL CΔ(103–151)-S-TEV-GFP-6xHis) (Mycobacterium tuberculosis) (UniProt A5U127). The experiment in a line: native MS.

We go through 1 substance from paper PMC6585436 (Chemistry & biology, 2015).

Broadly, the stoichiometry N is the number of molecules, sites or subunits per partner or assembly. “MtMscL CΔ48 C-GFP (pet15b-MtMscL CΔ(103–151)-S-TEV-GFP-6xHis) (from UniProt A5U127 1-102) (domain or fragment)” gave a stoichiometry N of 5.
